Data as given in patent publication US20260028391A1.

Assays:
[1] = target: fusion glycoprotein (F) of the MPV used in the neutralization of Table 34 (metapneumovirus); assay: cell-based or functional assay
[2] = target: RSV fusion glycoprotein (RSV-F) of the RSV used in the neutralization of Table 33 (respiratory syncytial virus, strain not stated); assay: cell-based or functional assay
[3] = target: biot-MPV-F wt (metapneumovirus (MPV)); assay: BLI (Octet), biotinylated F on SA sensors, mAb 5 µg/ml
[4] = target: biot-MPV-F D280N (metapneumovirus (MPV)); assay: as above
[5] = target: MPV F D280N mutant expressed on transfected Expi293F cells (metapneumovirus (MPV)); assay: flow cytometry, transfected Expi293F cells, fixed and permeabilised
[6] = target: MPV F WT expressed on transfected Expi293F cells (metapneumovirus (MPV)); assay: as above
[7] = target: biot-MPV-F D280N (metapneumovirus (MPV)); assay: BLI, SA sensor loaded with biot-MPV-F D280N (sheet title 'MPV-G D280N'), mAb 5 ug/ml, 4 min association, 6 min dissociation
[8] = target: biot-MPV-F wt (metapneumovirus (MPV)); assay: BLI, SA sensor loaded with biot-MPV-F wt, mAb 5 ug/ml, 4 min association, 6 min dissociation
[9] = target: biot-MPV-F D280N (metapneumovirus (MPV)); assay: BLI, SA sensor loaded with biot-MPV-F D280N (sheet title 'MPV-G D280N'; head of the value column printed 'MPV-F', not 'KD (M)'), mAb 5 ug/ml, 4 min association, 6 min dissociation
[10] = target: biot-RSV-F wt (respiratory syncytial virus (RSV)); assay: BLI (Octet), biotinylated F on SA sensors, mAb 5 µg/ml
[11] = target: RSV-long strain fusion glycoprotein (F) (RSV, long strain) (UniProt P12568); assay: cell-based or functional assay
[12] = target: RSV-B B9320 F protein (RSV B, strain B9320); assay: cell-based or functional assay
[13] = target: RSV-B B18537/62 F protein (RSV B, strain B18537/62) (UniProt P13843); assay: cell-based or functional assay
[14] = target: biot-RSV-F wt (respiratory syncytial virus (RSV)); assay: BLI, SA sensor loaded with biot-RSV-F wt, mAb 5 ug/ml, 4 min association, 6 min dissociation
[15] = target: DS-Cav1 RSV F (respiratory syncytial virus); assay: ELISA on DS-Cav1 RSV F
[16] = target: MPV fusion glycoprotein with the D280N mutation (MPV-F N280) (metapneumovirus); assay: biolayer interferometry (BLI), rIgG1 with M428L/N434S
[17] = target: MPV fusion glycoprotein without the D280N mutation (MPV-F D280) (metapneumovirus); assay: as above

B1: MPK190-v1.1-rIgG1m17,1-LS (antibody, V domains shown)
VH: QVQLVESGGGLVKPGGSLTLSCAASGFSISGYGMNWVRQAPGRGLEWVASISASSTYIYYADSMKGRFTISRDNGKTSLYLQMKSLRAEDTAVYYCARAPIEPPYFDLWGRGTLVTVSS
VL: QSVLTQPPSVSGAPGQRVTISCTGSNSNIGAGYDVHWYQHLPGKAPKVLIYGNNNRPSVVPDRFSGSNSGASASLAISGLQAEDEADYFCQSYDRRLSGPIFGGGTKLTVL
- IC50 (ng/mL) in neutralization against MPV [1]: 0.705 ng/mL
- IC50 (ng/mL) in neutralization against RSV [2]: 5.8 ng/mL
- Kd [3]: < 0.001 nM
- Kd [4]: 0.362 nM
- Binding (FACS) relative to parental mAb MPK190-v1.1 [5]: 1
- Binding (FACS) relative to parental mAb MPK190-v1.1 [6]: 1
- Kd [7]: 0.402 nM
- Kd [8]: < 0.001 nM

B2: MPK104-v1.1-rIgG1m17,1-LS (antibody, V domains shown)
VH: QVQLVESGGGLVKPGGSLRLSCAASGFTIDGYGMNWVRQAPGKGLEWVSSISASSNYIYYADSMKGRFTISRDNGKNSLYLQMHSLRVEDTGVYYCARAPLEPPYFDLWGRGTLVTVSS
VL: QSVLTQPPSVSGAPGQRVTISCSGGSSNIGAGYDVHWYQQVPGKGPKVLIYGNNNRPSGVPDRFSGSNFGASASLAITGLQADDEADYFCQSYDRRLGGPVFGGGTKLTVL
- IC50 (ng/mL) in neutralization against MPV [1]: 1.36 ng/mL
- IC50 (ng/mL) in neutralization against RSV [2]: 6.61 ng/mL
- Kd [9]: 0.497 nM
- Binding (FACS) relative to parental mAb MPK104-v1.1 [5]: 1
- Binding (FACS) relative to parental mAb MPK104-v1.1 [6]: 1
- Kd [8]: < 0.001 nM

B3: MPK104-v1.3-rIgG1m17,1-LS (antibody, V domains shown)
VH: QVQLVESGGGLVKPGGSLRLSCAASGFTIDGYGMNWVRQAPGKGLEWVSSISASSNYIYYADSMKGRFTISRDNGKNSLYLQMHSLRVEDTGVYYCARAPLEPPYFDLWGRGTLVTVSS
VL: QSVLTQPPSVSGAPGQRVTISCSGGSSNIGAGYDVHWYQQVPGKGPKVLIYGNTNRPSGVPDRFSGSNFGASASLAITGLQAEDEADYFCQSYDRRLGGPVFGGGTKLTVL
- IC50 (ng/mL) in neutralization against MPV [1]: 1.16 ng/mL
- IC50 (ng/mL) in neutralization against RSV [2]: 4.8 ng/mL
- Kd [9]: 0.49 nM
- Kd [3]: < 0.001 nM
- Kd [4]: 0.37 nM
- Binding (FACS) relative to parental mAb MPK104-v1.1 [5]: 1.1
- Binding (FACS) relative to parental mAb MPK104-v1.1 [6]: 1
- Kd [8]: < 0.001 nM

B4: MPH12-rIgG1-LS (antibody, V domains shown)
VH: QVQLVESGGGLVKPGGSLRLSCVASGFTFSGFYMKWIRQAPGKGLEWVSSISASGSYTNYADSVEGRFTVSRDNAKNSLFLLMSSLRAEDTAVYYCARGDSYCGASACHGEFFHKWGQGTLVTVSS
VL: QSVLTQPPSVSGAPGQRVTISCTGSDSNIGADFDVHWYQQLPGTAPKLLIYGNINRPSGVPDRFSGSRSGTSAFLAITRLQAEDEADYYCQSYDRSLHYVFGAGTKVTVL
- IC50 (ng/mL) in neutralization against MPV [1]: 5.26 ng/mL
- IC50 (ng/mL) in neutralization against RSV [2]: 12.9 ng/mL
- Kd [10]: 1.2 nM
- Kd [3]: < 0.001 nM
- Kd [4]: 1.01 nM

B5: MPK190-rFab (Fab, V domains shown)
VH: EVQLVESGGGLVKPGGSLTLSCAASGFSISGYGMNWVRQAPGRGLEWVASISASSTYIYYADSMKGRFTISRDNGKTSLYLQMKSLRAEDTAVYYCARAPIEPPYFDLWGRGTLVTVSS
VL: QSVLTQPPSVSGAPGQRVTISCTGSNSNIGAGYDVHWYQHLPGKAPKVLIYGNNNRPSVVPDRFSGSNSGASASLAISGLQAEDEADYFCQSYDRRLSGPIFGGGTKLTVL
- EC50, virus neutralization (Fab testing) [11]: 0.0979 nM
- EC50, virus neutralization (Fab testing) [12]: 0.0325 nM
- EC50, virus neutralization (Fab testing) [13]: 0.0633 nM

B6: MPK104-rIgG1-LS (antibody, V domains shown)
VH: EVQLVESGGGLVKPGGSLRLSCAASGFTIDGYGMNWVRQAPGKGLEWVSSISASSNYIYYADSMKGRFTISRDNGKNSLYLQMHSLRVEDTGVYYCARAPLEPPYFDLWGRGTLVTVSS
VL: QSVLTQPPSVSGAPGQRVTISCSGGSSNIGAGYDVHWYQQVPGKGPKVLIYGNNNRPSGVPDRFSGSNFGASASLAITGLQADDEADYFCQSYDRRLGGPVFGGGTKLTVL
- Kd [14]: 0.0373 nM
- Kd [9]: 0.472 nM
- Kd [10]: 0.306 nM
- Kd [3]: < 0.001 nM
- Kd [4]: 0.391 nM
- Kd [8]: < 0.001 nM

B7: MPK77-rIgG1-LS (antibody, V domains shown)
VH: EVQLVESGGGLVKPGGSLRLSCAASKSFSGYYMIWIRQAPGRGLEWIADISGSSTYTDYADSVKGRFTISRDNTRNTLYLQMNSLRPEDTAVYYCATEQVPSPGPFDLWGPGTLVTVSS
VL: QSVLTQPPSVSGAPGQRVIISCTGSSSNIGAGYDVHWYQQFPGTSPKLLIYRNTNRPSGVPDRFSGFKSGASAALAITGLQAEDEADYYCQSYDRSLSGWAFGGGTKVTVL
- Kd [14]: < 0.001 nM
- Kd [10]: 0.00228 nM
- Kd [3]: < 0.001 nM
- Kd [4]: 0.394 nM
- Kd [7]: 0.406 nM
- Kd [8]: < 0.001 nM

B8: MPH12 VH-FRGL-S63A / MPH12 VL-FRGL-D25E (antibody, V domains shown)
VH: QVQLVESGGGLVKPGGSLRLSCAASGFTFSGFYMKWIRQAPGKGLEWVSSISASGSYTNYADAVEGRFTISRDNAKNSLYLQMNSLRAEDTAVYYCARGDSYCGASACHGEFFHKWGQGTLVTVSS
VL: QSVLTQPPSVSGAPGQRVTISCTGSESNIGADFDVHWYQQLPGTAPKLLIYGNINRPSGVPDRFSGSKSGTSASLAITGLQAEDEADYYCQSYDRSLHYVFGTGTKVTVL
- EC50 [15]: 34.7 ng/mL

B9: MPH12-v17 (VH-FRGL-D62E/VL-D25S) (antibody, V domains shown)
VH: QVQLVESGGGLVKPGGSLRLSCAASGFTFSGFYMKWIRQAPGKGLEWVSSISASGSYTNYAESVEGRFTISRDNAKNSLYLQMNSLRAEDTAVYYCARGDSYCGASACHGEFFHKWGQGTLVTVSS
VL: QSVLTQPPSVSGAPGQRVTISCTGSSSNIGADFDVHWYQQLPGTAPKLLIYGNINRPSGVPDRFSGSRSGTSAFLAITRLQAEDEADYYCQSYDRSLHYVFGAGTKVTVL
- EC50 [15]: 25.1 ng/mL
- Kd [16]: 0.55 nM
- Kd [17]: 0.028 nM

B10: MPH12-v29 (VH-FRGL-D62E/VL-S26A) (antibody, V domains shown)
VH: QVQLVESGGGLVKPGGSLRLSCAASGFTFSGFYMKWIRQAPGKGLEWVSSISASGSYTNYAESVEGRFTISRDNAKNSLYLQMNSLRAEDTAVYYCARGDSYCGASACHGEFFHKWGQGTLVTVSS
VL: QSVLTQPPSVSGAPGQRVTISCTGSDANIGADFDVHWYQQLPGTAPKLLIYGNINRPSGVPDRFSGSRSGTSAFLAITRLQAEDEADYYCQSYDRSLHYVFGAGTKVTVL
- EC50 [15]: 42.5 ng/mL
- Kd [16]: 0.64 nM
- Kd [17]: 0.027 nM

B11: MPH12 VH / MPH12 VL-FRGL-D25E (antibody, V domains shown)
VH: QVQLVESGGGLVKPGGSLRLSCVASGFTFSGFYMKWIRQAPGKGLEWVSSISASGSYTNYADSVEGRFTVSRDNAKNSLFLLMSSLRAEDTAVYYCARGDSYCGASACHGEFFHKWGQGTLVTVSS
VL: QSVLTQPPSVSGAPGQRVTISCTGSESNIGADFDVHWYQQLPGTAPKLLIYGNINRPSGVPDRFSGSKSGTSASLAITGLQAEDEADYYCQSYDRSLHYVFGTGTKVTVL
- EC50 [15]: 30.6 ng/mL

B12: MPH12-v34 (VH-FRGL-S63A/VL-FRGL-D25S) (antibody, V domains shown)
VH: QVQLVESGGGLVKPGGSLRLSCAASGFTFSGFYMKWIRQAPGKGLEWVSSISASGSYTNYADAVEGRFTISRDNAKNSLYLQMNSLRAEDTAVYYCARGDSYCGASACHGEFFHKWGQGTLVTVSS
VL: QSVLTQPPSVSGAPGQRVTISCTGSSSNIGADFDVHWYQQLPGTAPKLLIYGNINRPSGVPDRFSGSKSGTSASLAITGLQAEDEADYYCQSYDRSLHYVFGTGTKVTVL
- Kd [16]: 0.82 nM
- Kd [17]: 0.039 nM

B13: MPH12-v35 (VH-FRGL-D62E/VL-FRGL-D25S) (antibody, V domains shown)
VH: QVQLVESGGGLVKPGGSLRLSCAASGFTFSGFYMKWIRQAPGKGLEWVSSISASGSYTNYAESVEGRFTISRDNAKNSLYLQMNSLRAEDTAVYYCARGDSYCGASACHGEFFHKWGQGTLVTVSS
VL: QSVLTQPPSVSGAPGQRVTISCTGSSSNIGADFDVHWYQQLPGTAPKLLIYGNINRPSGVPDRFSGSKSGTSASLAITGLQAEDEADYYCQSYDRSLHYVFGTGTKVTVL
- Kd [16]: 0.78 nM
- Kd [17]: 0.028 nM
